Biological target: the molecule itself
Experiment: AUC; equilibrium sedimentation, 20 mM Tris-HCl pH 7.5, 200 mM NaCl, 20°C, 20,000 and 26,000 rpm, 12.6, 16.8 and 21.0 uM protein; data fit a homogeneous dimer model; reversible monomer-dimer and monomer-trimer models rejected

B1: triosephosphate isomerase from Thermoplasma acidophilum (enzyme, UniProt Q9HLB6 1-216, looked up)
chain: MYTAIVNLKTYREATGANFTRFMEKFEPVQGKFELIFSPSLLDLEKAAKCGKFRFFAQHVDAEPYGAYTGHVPMDMMIDLGITGSILNHSERRLPRDTIINTLKKASKLDFTIVLCVENAEEAKYFREYEPDFIAYEPRDLIGGDVSVSTAKPEIIEDIVKIYEGTGTSVLVGAGIKTGEDVRRSIGLGARGILVASGVVKSADPTKSLNSLIELK
notes: Cloned into pET-28a(+) with a C-terminal His6-tag; no tag removal is described; The monomer mass used for AUC is 24,671 daltons; The crystals with glycerol-3-phosphate (G3P) hold the same protein; also called TaTPI; apo-TaTPI; source: E. coli Rosetta 2(DE3)pLysS, purified (heat step 60°C, HiTrap Chelating, SEC, anion exchange, SEC)
stoichiometry N: 2

— PMC4692482, “Structure and Stability of the Dimeric Triosephosphate Isomerase from the Thermophilic Archaeon Thermoplasma acidophilum” (PLoS ONE, 2015)
